Biological target: LDL receptor (human), on cells (human) (UniProt P01130)
Assay: cell-based or functional assay

HDL fraction of HCV-infected serum (HCV-HDL)
Endocytosis of 5 µg DiI-labeled fraction, mean fluorescence (log scale) (mean fluorescence (log scale)): 1.88

VLDL fraction of HCV-infected serum (HCV-VLDL)
Endocytosis of 5 µg DiI-labeled fraction, mean fluorescence (log scale) (mean fluorescence (log scale)): 8.49

high density lipoprotein (HDL) from normal serum
competitive inhibition of endocytosis of HCV by HepG2, G4 and E11 cells: > 200 µg/mL

LDL fraction of HCV-infected serum (HCV-LDL)
Endocytosis of 5 µg DiI-labeled fraction, mean fluorescence (log scale) (mean fluorescence (log scale)): 9.98

low density lipoprotein (LDL) from normal serum, P04114 1-4563
Uptake of LDL by cultured cells, mean fluorescence (G4, lipoprotein deficient medium, DiI-LDL) (mean fluorescence): 16 | Uptake of LDL by cultured cells, mean fluorescence (G4, routine medium, DiI-LDL) (mean fluorescence): 4 | Uptake of LDL by cultured cells, mean fluorescence (HepG2, routine medium, DiI-LDL) (mean fluorescence): 16

From US20110229482A1, “Method of inhibiting infection by HCV, other flaviviridae viruses, and any other virus that complexes to low density lipoprotein or to very low density lipoprotein in blood by preventing viral entry into a cell” (priority 2000, published 2011)
